# Measured values reported in EP4711453A1, “PHENYLALANINE LYASE MUTANT, AND CONJUGATE THEREOF OR PHARMACEUTICALLY ACCEPTABLE SALT THEREOF” (Peg-Bio Biopharm Co., Ltd. (Chongqing), priority 2023, dated 2024).
# B1: PL54-5: polyethylene glycol conjugate of PAL4 (SEQ ID NO: 6) with PEG-SPA-5K, molar ratio 1:16, average degree of modification 13.60 (conjugate)
# chain: MKTLSQAQSKTSSQQFSFTGNSSANVIIGNQKLTINDVARVARNGTLVSLTNNTDILQGIQASCDYINNAVKSGEPIYGVTSGFGGMANVAISREQASELQTNLVWFLKTGAGNKLPLADVRAAMLLRANSHMRGASGIRLELIKRMEIFLNAGVTPYVYEFGSIGASGDLVPLSYITGSLIGLDPSFKVDFNGKEMDAPTALRQLNLSPLTLLPKEGLAMMNGTSVMTGIAANCVYDTKILTAIAMGVHALDIQALNGTNQSFHPFIHNSKPHPGQLWAADQMISLLANSQLVRDELDGKHDYRDHELIQDRYSLRCLPQYLGPIVDGISQIAKQIEIEINSVTDNPLIDVDNQASYHGGNFLGQYVGMGMDHLRYYIGLLAKHLDVQIALLASPEFSNGLPPSLLGNRERKVNMGLKGLQICGNSIMPLLTFYGNSIADRFPTHAEQFNQNINSQGYTSATLARKSVDIFQNYVAIALMFGVQAVDLRTYKKTGHYDARASLSPATERLYSAVRHVVGQKPTSDRPYIWNDNEQGLDEHIAKISADIAAGGVIVQAVQDILPSLH
# modifications: PEG-SPA-5K conjugate, ~13.6 PEG per molecule
# Test system: serum phenylalanine
# Assay: Serum phenylalanine concentration after multiple administrations in phenylketonuria model mice (LC-MS/MS)
# Assay type: in vivo
# Settings: Pah^enu mice
# Excerpt: Phenylalanine hydroxylase (PAH) was central to phenylalanine metabolism in animals, catalyzing the conversion of phenylalanine to tyrosine. Deficiency of this gene underlies phenylketonuria. […] Therefore, the homozygous mouse carrying the missense mutation F263S can be used as an animal model for phenylketonuria (referred to as the Pah^enu mouse or model mouse) in this drug study.
# To evaluate the polyethylene glycol conjugate PL54 of site-saturation modified phenylalanine lyase mutant, […] Pah^enu mice were allocated into five groups (four experimental groups and one control group), with six mice in each group. PL54-5 (average degree of modification 13.60, specific enzyme activity 1.27 U/mg) from Table 3 of Example 2 was administered to phenylketonuria animal model mice at low, medium, and high doses of 0.5 mg/kg, 1.5 mg/kg, and 4.5 mg/kg, respectively, via subcutaneous injection. The high-dose group of 4.5 mg/kg also included a group receiving intramuscular administration, once per week. The control group was administered phosphate buffered saline as a placebo subcutaneously once weekly. Blood samples were collected from mice in each group at 1 h before administration and at 2, 5, and 7 days after administration for each group. The content of PL54-5 in serum, changes in phenylalanine concentration (Reference: Judy Peat et al., Determination of Phenylalanine and Tyrosine by High Performance Liquid Chromatography-Tandem Mass Spectrometry), and Anti-PEG-IgM/IgG antibody titers (see Example 5 for details) were detected by sandwich ELISA (see Example 5 for details), and their pharmacokinetics were evaluated, see FIG. 6 to FIG.9 for details.
molecule,measurement,setting,value
B1,efficacy after intramuscular administration,4.5 mg/kg intramuscular once per week,consistent with that after subcutaneous administration
same,serum phenylalanine,"high dose 4.5 mg/kg s.c., within 2 days after the first administration",below the method detection limit
same,reduction of serum phenylalanine levels,"high-dose group 4.5 mg/kg s.c., after five repeated administrations, within 2 days",more than 90%
same,decrease of serum phenylalanine levels,"medium-dose group 1.5 mg/kg s.c., after five repeated administrations",approximately 75%
